Results reported in patent publication US20220098328A1, “ANTIBODIES TO M(H)DM2/4 AND THEIR USE IN DIAGNOSING AND TREATING CANCER” (NomoCan Pharmaceuticals LLC, priority 2017, published 2022).
“Also recorded” adds a separate entry of the source.

Columns and labels:
[1] = tested on: human pancreatic cancer MIAPaCa-2 cells; assay: In vitro growth inhibition (cell count); assay type: cell-based; conditions: overnight, MIAPaCa-2 8,000 cells/well
Experimental: Methodology used: Human pancreatic cancer MIAPaCa-2 cells (8,000 cells/well) were pre-incubated with mAb NMC-103, NMC-204 and anti-Cytochrome-C antibody (Santa Cruz, Cat No. sc-13156) at 1, 5 and 10 μg/mL, respectively. Cells in the presence of one of the antibodies at various concentrations were then plated in triplicate in 96-well cell culture plates overnight. The next day, each plate well was analyzed morphologically and a picture was taken from each well using EVOS FL microscope. Cell count was also performed and the number of living cells was graphed as % of control.

[2] = tested on: normal human peripheral blood mononuclear cells (PBMCs); assay: Cell-ELISA on intact cells; assay type: cell-based; conditions: freshly isolated normal human PBMCs
Experimental: (§1) Cell-ELISA Methodology: 8,000-10,000 cells/well of a 96-well microplate were grown overnight. The next day, unbound cells were washed off with sterile 1×PBS. The cells in each well were fixed with freshly prepared 4% buffered paraformaldehyde (pH 7.2) for 1 hour followed by 3 washes with 1×PBS. The wells were then blocked with 5% BSA in PBS (100 μl/well) for 2 hours at room temperature. Microplate wells were then washed 5 times with 300 μl of ice cold 1×PBS. MAbs NMC-103, NMC-204 or NMC-303 at 1 μg/mL in 1% BSA/PBS were then incubated with various cancer or normal untransformed cells for 2 hours at room temperature. Wells were then washed with 300 μl of ice-cold 1×PBS for 5 times and corresponding secondary antibody HRP-GaM F(ab′)2 diluted 1:2500 or 1:5000 in PBS with 1% BSA were added at 100 μl/well for 1 hour at room temperature followed by washing 5 times with 300 μl of ice-cold 1×PBS. TMB Substrate Solution (1-Step™ Ultra TMB-ELISA, ThermoFisher, Cat. No. 34028) was then added at 50 μL to each microplate well and incubated at room temperature for 30 minutes. The reaction was stopped by addition of 50 μL of stop solution (ThermoFisher, Cat. No. SS04) to each well and absorbance of each well was measured at OD450 nm. The absorbance value of each experimental well was corrected for the absorbance value obtained from wells treated with isotype-identical mAbs included in each experiment. The results are thus expressed as “relative binding”.

[3] = tested on: human triple negative breast cancer HCC1806 cells; assay: Cell-ELISA on intact cells; assay type: cell-based; conditions: mAb 1 μg/mL, fixed, non-permeabilized cells
Experimental: as §1

[4] = tested on: human uveal melanoma 92.1 cells; assay: Cell-ELISA on intact cells; assay type: cell-based; conditions: mAb 1 μg/mL, fixed, non-permeabilized cells
Experimental: as §1

[5] = molecular target: T1, recombinant HDM2 protein (GST tagged) (Homo sapiens, UniProt Q00987); assay: Western blot (immunoblot); assay type: binding; conditions: 1 μg/well protein, antibody 1 μg/ml; band at approximately 83 kD
T1 construct: NMC-103, NMC-204 and NMC-303 reacted with the recombinant full-length HDM2 protein; purchased Abcam ab188727
Experimental: Western Blot: As for immunoblots, 1 μg/well of recombinant HDM2 protein (GST tagged, Abcam, Cat. No. ab188727) was separated on 8-16% sodium dodecyl sulfate (SDS) polyacrylamide gel and proteins were then transferred to polyvinylidene difluoride (PVDF) membrane. The membrane was blocked with 5% milk followed by incubation with monoclonal antibody NMC-103, NMC-204 or NMC-303 at 1 μg/ml in 1% milk in PBS for 2 hours. The membrane was then washed ×3 times (10 minutes each) and incubated for 1 hour with corresponding HRP-conjugated secondary antibody (Goat anti-Mouse IgG (H&L), F(ab′)2 Frag Cross-adsorbed HRP (HRP-GaM F(ab′)2), ThermoFisher, Cat. No. A24524) diluted 1:5000 in 1% BSA-PBS. The membrane was then washed ×3 times and incubated with Pierce ECL Plus Western Blotting Substrate (ThermoFisher, Cat. No. #32132) for 10 min before developing on a LICOR Scanner.

[6] = tested on: mouse Lewis Lung LL/2 cancer cells; assay: Flow cytometry (EDTA vs trypsin, intact vs permeabilized); assay type: cell-based; conditions: for % cells stained: 5 μg/ml antibody; for staining of trypsin-treated permeabilized cells: reduction in binding after trypsin vs reactivity with intracellular target
Experimental: Flow Cytometry Methodology: Cells that had been allowed to grow to about 80% confluency in 25 cm^2 tissue culture flasks were released with either EDTA (10 mmols; pH7.2; 5 min, 37° C.) or Trypsin (Gibco TrypLE Express), fixed with freshly made 4% buffered (pH 7.4) paraformaldehyde for 1 h at room temperature, washed several times with a large volume of ice-cold PBS, and blocked for 30 minutes at room temperature with 5% human serum albumin in PBS (intact, non-permeabilized cells). After establishing viability, the cell number was adjusted to 10^6 cells/ml and kept in ice-cold PBS until staining. Another set of the same cells was released with either EDTA or Trypsin and fixed with 4% buffered paraformaldehyde as above, then washed and blocked with 5% human serum albumin in PBS, and was treated separately with Triton X-100 (0.1% in PBS) (International Biotechnologies Inc. 07100) for 5 minutes at room temperature for membrane permeabilization. After washing off the Triton X-100 solution with PBS the cells were adjusted to 10^6 cells/ml and stored in ice-cold PBS. Cells (10^6/ml) from each preparation were then incubated either with 5 μg/ml of mAb to Na+/K+ ATPase α-1 (Abcam, Cat. No. ab2826), 5 μg/ml of mAb NMC-103, or 5 μg/ml of mAb NMC-204 for 90 min at room temperature. Following primary antibody incubation, cells were washed 3 times with ice-cold PBS followed by incubation with rabbit anti-mouse PE-Cy5 labeled secondary antibody (PE-Cy5-RaM IgG (H&L); Invitrogen, Cat. No. M35018) at room temperature. Sixty minutes later the cells were washed 3 times with PBS and subjected to flow cytometry analysis (BD Canto Flow Cytometry). Controls to establish background fluorescence included the analysis of samples of unstained cells as well as cells that had been processed with secondary antibody under the same conditions as used in the experimental samples.
Cells that had been allowed to grow to about 80% confluency in 75 cm^2 tissue culture flasks were released with either EDTA (10 mmols; pH 7.2; 5 min, 37° C.) or Trypsin (Gibco TrypLE Express), washed several times with ice-cold PBS, and blocked for 20 minutes on ice with 5% human serum albumin in PBS (intact, non-permeabilized cells). After establishing viability, the cell number was adjusted to 10^6 cells/ml and kept in ice-cold PBS until staining. Cells were then incubated with primary antibodies NMC-H103 (VH4/VK3) or NMC-C303 (1 μg/ml) for 30 minutes on ice. Following primary antibody incubation, cells were washed 3 times with ice-cold PBS, followed by incubation with goat anti-human PE labeled secondary antibody (Life technologies H10104) on ice for 20 minutes. Cells were then washed 3 times with PBS and incubated with 7AAD (5 μl/[…] of buffer) before flow cytometry analysis using Fortessa 5.

[7] = EDTA-treated permeabilized cells (Triton X-100)

T1 sequence (Q00987 whole entry): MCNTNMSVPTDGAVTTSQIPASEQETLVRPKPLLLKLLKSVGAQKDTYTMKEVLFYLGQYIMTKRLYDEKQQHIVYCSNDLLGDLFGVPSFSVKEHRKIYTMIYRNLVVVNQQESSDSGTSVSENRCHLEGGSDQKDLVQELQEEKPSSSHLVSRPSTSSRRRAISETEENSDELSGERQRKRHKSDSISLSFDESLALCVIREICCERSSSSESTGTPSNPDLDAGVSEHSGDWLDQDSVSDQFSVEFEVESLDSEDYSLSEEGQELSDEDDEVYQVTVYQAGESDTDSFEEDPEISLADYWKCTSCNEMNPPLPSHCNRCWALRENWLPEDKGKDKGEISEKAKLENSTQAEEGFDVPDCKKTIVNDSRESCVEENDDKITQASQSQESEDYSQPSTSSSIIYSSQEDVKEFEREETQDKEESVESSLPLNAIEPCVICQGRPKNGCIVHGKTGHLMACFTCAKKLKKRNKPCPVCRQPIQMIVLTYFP

| Molecule | growth inhibitory effect ([1]; 1 μg/mL antibody) [%] | growth inhibitory effect ([1]; 5 μg/mL antibody) [%] | growth inhibitory effect ([1]; 10 μg/mL antibody) [%] | binding to intact normal cells, cell-ELISA [2] | relative binding (reactivity) to intact cells, cell-ELISA [3] | relative binding (reactivity) to intact cells, cell-ELISA [4] | reactivity with recombinant full-length HDM2-GST protein (immunoblot) [5] | % cells stained ([6]; EDTA-treated intact cells) [%] | % cells stained [6, 7] [%] | staining of trypsin-treated permeabilized cells [6] | % cells stained ([6]; trypsin-treated intact cells) [%] | binding to live cells briefly treated with trypsin, flow cytometry ([6]; 7AAD negative) | binding to live (7AAD negative) cells, flow cytometry ([6]; antibody 1 μg/ml) |
| --- | --- | --- | --- | --- | --- | --- | --- | --- | --- | --- | --- | --- | --- |
| NMC-103: mouse monoclonal antibody of the IgG1 isotype that binds to NMC-P1 (SEQ ID NO:1); VH SEQ ID NO:36, VL SEQ ID NO:37 (antibody, V domains shown, mAb NMC-103 Heavy Chain Variable Region; mAb NMC-103 Light Chain Variable Region) VH: EVQLQESGGGLVQPGGSLRLSCTTSGFTFTHYYMSWVRQPPGKALEWLGFIRNKAKGYTAEYSASVKGRFTISRDNSQSILYLQMNTLRPEDSATYYCARDIGDNWGQGTLVTVSS VL: DIVMTQAAFSNPVTLGTSASISCRSSKNLLHSNGITYLYWYLQRPGQSPQLLISRVSNLASGVPNRFSGSESGTDFTLRISRVEAEDVGVYFCAQLLELPYTFGGGTKLEIK | 65 | 84 | 91 | virtually no binding | reactivity | reactivity | reacted | 70.4 | 75.8 | compensated | 36.8 | – | – |
| NMC-H103 (VH4/VK3): humanized NMC-103 variant, human IgG1, VH4 (SEQ ID NO:299) and VK3 (SEQ ID NO:297) (antibody, V domains shown, human IgG1 constant regions lacking entries; mAb NMC-H103.VH4Heavy Chain Variable Region; mAb NMC-H103.VK3Light Chain Variable Region) VH: EVQLVESGGGLVQPGPSLRLSCTTSGFTFTHYYMSWVRQAPGKGLEWLGFIRNKAKGYTAEYSASVKGRFTISRDNSKSTLYLQMNSLRAEDTAVYYCARDIGDNWGQGTLVTVSS VL: DIVMTQTPLSSPVTLGQPASISCRSSKNLLHSNGITYLYWYLQKPGQSPQLLISRVSNLASGVPDRFSGSESGTDFTLKISRVEAEDVGVYFCAQLLELPYTFGGGTKVEIK | – | – | – | – | – | – | – | – | – | – | – | reduced | binding |
| NMC-204: mouse monoclonal antibody of the IgG3 isotype that binds to NMC-P2 (SEQ ID NO:2); VH SEQ ID NO:38, VL SEQ ID NO:39 (antibody, V domains shown, mAb NMC-204 Heavy Chain Variable Region; mAb NMC-204 Light Chain Variable Region) VH: EVQLQESGSVLVRPGASVKLSCKASGDTLSGSWMHWAMQRPGQGLEWIGEIHLNRGTTNYNEKFKGKATVTVDTSSSTAYVDLSSLTSEDSAVYYCARSPGFAYWGQGTLVTVSA VL: GIVMTQAAPSVPVTPGESVSISCRSSKSLLHSNGNSYLYWFLQRPGQSPQLLIYRMSNLASGVPDRFSGSGSGTAFTLRITRVEAEDVGVYYCMQHLEYPFTFGSGTKLEIK | 65 | 73 | 77 | did not react; also recorded: virtually no binding | reactivity | reactivity | reacted | 51.2 | 52.85 | compensated | 27 | – | – |
